One molecule from patent US20160060354A1 (published 2016) can be followed below.

The experiment concerns the target Her (trivalent GalNAc glycan-conjugated). The experiment is described as follows: SPR. A general note: SPR reads the build-up and loss of mass on a sensor chip optically.

As usually defined, the koff is a measure of how fast the partners let go of each other.

B1: ASGPR subunit H1 (receptor)
chain: QNSQLQEELRGLRETFSNFTASTEAQVKGLSTQGGNVGRKMKSLESQLEKQQKDLSEDHSSLLLHVKQFVSDLRSLSCQMAALQGNGSERTCCPVNWVEHERSCYWFSRSGKAWADADNYCRLEDAHLVVVTSWEEQKFVQHHIGPVNTWMGLHDQNGPWKWVDGTDYETGFKNWRPEQPDDWYGHGLGGGEDCAHFTDDGRWNDDVCQRPYRWVCETELDKASQEPPLL
On to B1, for which the koff stood at 1.83e-08 s⁻¹.
